Legend:
CB platelets = assay: TRAP-induced platelet activation (CD62P expression); format: cell-based, human; details: after TRAP stimulation, vs without inhibitor
Excerpt: (§1) FIGS. 4A-4E. Rock inhibitor treatment enhance platelets secretion and TRAP induced activation. (FIG. 4A) Schematic representation of the strategy for the in-vitro megakaryocytes culture with or without rock inhibitor(Y27632) for 48 hrs. (FIG. 4B) Number of platelets after 48 hrs, number above bar indicates p-value. […] This indicates enhancement of functional profile of the CB platelets (FIGS. 4D-4E). Several different ROCK inhibitors can be used in this procedure including Y27632, KD025, GSK269962 and Azaindole 1([9-12].

CB megakaryocytes [1] = assay: Platelet secretion from megakaryocytes cultured in vitro with or without ROCK inhibitor; format: cell-based, human; details: 48 hrs culture, vs without inhibitor; dose-dependent
Excerpt: as §1

CB megakaryocytes [2] = assay: Megakaryocyte polyploidy by propidium iodide staining after ROCK inhibitor treatment; format: cell-based, human; details: treatment of mature megakaryocytes over 5 days, vs untreated
Excerpt: FIGS. 3A-3C. Rock inhibitor(Y27632) treatment increases megakaryocyte polyploidy. (FIG. 3A) Schematic representation of the strategy for the rock inhibitor treatment of mature megakaryocytes over 5 days. (FIG. 3B) Histogram plots showing propidium Iodide (PI) staining in fixed and permeabilized untreated or Y27632 treated megakaryocytes. (FIG. 3C) Percentage of polyploid (=>8N) megakaryocytes in untreated or Y27632 treated groups, number above bar indicates p-value.
The inventors characterized the influence of ROCK inhibitors on CB megakaryocyte ploidy changes, platelets secretions, and their functionality.
This indicates enhancement of functional profile of the CB platelets (FIGS. 4D-4E). Several different ROCK inhibitors can be used in this procedure including Y27632, KD025, GSK269962 and Azaindole 1([9-12].

recipient patients = details: ex vivo treatment of CB CD34+ progenitors with FT-VI plus GDP-fucose; cited from earlier work
[3] = system: megakaryocytes (CD41a+CD42b+ cells); assay: Cell surface fucosylation by flow cytometry HECA-452 antibody staining; format: cell-based, human; details: FT-VI 0.025 μg/ml plus GDP-fucose, 37° C., 30 min, vs control
Excerpt: (§2) FIGS. 7A-7G. FIG. 7A. […] (FIG. 7C) HECA-452 antibody mean fluorescence intensity (MFI) histogram expression in control and fucosylated megakaryocytes (CD41a+CD42b+CD61+ cells). (FIGS. 7D-7E) Schematic representation of CB megakaryocytes injection into NSG mice, BM homing analysis and the percentage of homed megakaryocytes in control and fucosylated megakaryocytes group. (FIGS. 7F-7G) CB megakaryocyte injection strategy into sublethally irradiated(3Gy) NSG mice and day 7 blood circulating CB derived platelets percentages measurement in the control and fucosylated groups.
(§3) To characterize the fucosylation levels at steady state, the inventors performed flow cytometry HECA-452 antibody staining (which recognizes sLex/cutaneous lymphocyte antigen (CLA), the fucosylated selectin ligand) to measure the levels of cell surface fucosylation in the freshly isolated CB derived hematopoietic stem cells(HSCs, lineage-CD34+CD38-CD90+CD45RA− cells), megakaryocytes lineage committed, megakaryocyte erythroid progenitors (MEPs, lineage-CD34+CD38+CD135−CD45RA−), and differentiated megakaryocytes(CD41a+CD42b+ cells). […] The NSG bone marrow homing experiments determine if the CB MK's surface fucosylation modification influences their homing into the irradiated mice marrow niche. Briefly, 5×10^6 fluorescein succinimidyl ester (CFSE) dye labeled, unmanipulated control or in-vitro fucosyltransferase-VI (FT-VI) induced fucosylated, expanded CB megakaryocytes were injected into sub-lethally (3Gy) irradiated NSG mice and bone marrow homing analysis at 20 h posttransplant was performed by flow cytometry. […] Similarly, another megakaryocytes tail vein transplantation (5×10^6/mice) experiment was performed, and initial percentage circulating platelets levels were measured from the control and fucosylated MK recipient groups. […]

[4] = system: CB derived hematopoietic stem cells (HSCs); assay: as above; format: cell-based, human; details: FT-VI 0.025 μg/ml plus GDP-fucose, 37° C., 30 min, vs control
Excerpt: as §2, §3

[5] = system: megakaryocyte erythroid progenitors (MEPs); assay: as above; format: cell-based, human; details: FT-VI 0.025 μg/ml plus GDP-fucose, 37° C., 30 min, vs control
Excerpt: as §2, §3

Molecule: C[C@@H](N)[C@H]1CC[C@H](C(=O)Nc2ccncc2)CC1 [Y27632]
- TRAP induced platelet activation (CD62P expression) (CB platelets): enhance
- platelets secretion (number of platelets) (CB megakaryocytes [1]): enhance
- megakaryocyte polyploidy (polyploid =>8N megakaryocytes) (CB megakaryocytes [2]): increases

B1: α1,3-fucosyltransferase (protein, UniProt P51993 1-359, looked up)
4-galactosyl-N-acetylglucosami …: MDPLGPAKPQWSWRCCLTTLLFQLLMAVCFFSYLRVSQDDPTVYPNGSRFPDSTGTPAHSIPLILLWTWPFNKPIALPRCSEMVPGTADCNITADRKVYPQADAVIVHHREVMYNPSAQLPRSPRRQGQRWIWFSMESPSHCWQLKAMDGYFNLTMSYRSDSDIFTPYGWLEPWSGQPAHPPLNLSAKTELVAWAVSNWGPNSARVRYYQSLQAHLKVDVYGRSHKPLPQGTMMETLSRYKFYLAFENSLHPDYITEKLWRNALEAWAVPVVLGPSRSNYERFLPPDAFIHVDDFQSPKDLARYLQELDKDHARYLSYFRWRETLRPRSFSWALAFCKACWKLQEESRYQTRGIAAWFT
notes: fucosyl-transferase enzyme used with GDP-fucose for ex vivo fucosylation of cells
- neutropenia and thrombocytopenia duration in recipient patients (recipient patients): significantly reduce
- fucosylation levels (HECA-452 MFI) in megakaryocytes [3]: significantly increased
- fucosylation levels (HECA-452 MFI) in HSCs [4]: significantly increased
- fucosylation levels (HECA-452 MFI) in MEPs [5]: significantly increased
